According to article doi:10.1101/2024.02.16.579611:

Target: E. coli RNA polymerase holoenzyme Eσ^70 (His10-PPX-RNAP with σ^70) (E. coli) (UniProt P0A7Z4)
Assay: native MS

stoichiometry N: 2
Substance: KorA (wild type), C-terminally His-tagged (from UniProt P03052) (natural protein)
